Paper PMC9279507
Changes are numbered by the printed parent chain. Names may count otherwise.

B1: STAT1cc (STAT1 core fragment, A656C and N658C, locked dimer), tag-free, P42224 E618A (protein)
chain: MSQWYELQQLDSKFLEQVHQLYDDSFPMEIRQYLAQWLEKQDWEHAANDVSFATIRFHDLLSQLDDQYSRFSLENNFLLQHNIRKSKRNLQDNFQEDPIQMSMIIYSCLKEERKILENAQRFNQAQSGNIQSTVMLDKQKELDSKVRNVKDKVMCIEHEIKSLEDLQDEYDFKCKTLQNREHETNGVAKSDQKQEQLLLKKMYLMLDNKRKEVVHKIIELLNVTELTQNALINDELVEWKRRQQSACIGGPPNACLDQLQNWFTIVAESLQQVRQQLKKLEELEQKYTYEHDPITKNKQVLWDRTFSLFQQLIQSSFVVERQPCMPTHPQRPLVLKTGVQFTVKLRLLVKLQELNYNLKVKVLFDKDVNERNTVKGFRKFNILGTHTKVMNMEESTNGSLAAEFRHLQLKEQKNAGTRTNEGPLIVTEELHSLSFETQLCQPGLVIDLETTSLPVVVISNVSQLPSGWASILWYNMLVAEPRNLSFFLTPPCARWAQLSEVLSWQFSSVTKRGLNVDQLNMLGEKLLGPNASPDGLIPWTRFCKENINDKNFPFWLWIESILELIKKHLLPLWNDGCIMGFISKERERALLKDQQPGTFLLRFSESSREGAITFTWVARSQNGGEPDFHAVEPYTKKELSAVTFPDIIRNYKVMAAENIPENPLKYLYPNIDKDHAFGKYYSRPKEAPEPMELDGPKGTGYIKTELISVSEVHPSRLQTTDNLLPMSPEEFDEVSRIVGSVEFDSMMNTV
B2: STAT1cc (STAT1 core fragment, A656C and N658C, locked dimer), tag-free, P42224 Q621W (protein)
chain: B1 chain with A618E, Q621W
B3: STAT1cc (STAT1 core fragment, A656C and N658C, locked dimer), tag-free, P42224 Q621A (protein)
chain: B1 chain with A618E, Q621A
B4: STAT1cc (STAT1 core fragment, A656C and N658C, locked dimer), tag-free, P42224 N662K (protein)
chain: B1 chain with A618E, N662K
B5: STAT1cc (STAT1 core fragment, A656C and N658C, locked dimer), tag-free, P42224 D672A (protein)
chain: B1 chain with A618E, D672A
B6: STAT1cc (STAT1 core fragment, A656C and N658C, locked dimer), tag-free, P42224 D593A (protein)
chain: B1 chain with D593A, A618E
B7: STAT1cc (STAT1 core fragment, A656C and N658C, locked dimer), tag-free, P42224 M654A (protein)
chain: STVMLDKQKELDSKVRNVKDKVMCIEHEIKSLEDLQDEYDFKCKTLQNREHETNGVAKSDQKQEQLLLKKMYLMLDNKRKEVVHKIIELLNVTELTQNALINDELVEWKRRQQSACIGGPPNACLDQLQNWFTIVAESLQQVRQQLKKLEELEQKYTYEHDPITKNKQVLWDRTFSLFQQLIQSSFVVERQPCMPTHPQRPLVLKTGVQFTVKLRLLVKLQELNYNLKVKVLFDKDVNERNTVKGFRKFNILGTHTKVMNMEESTNGSLAAEFRHLQLKEQKNAGTRTNEGPLIVTEELHSLSFETQLCQPGLVIDLETTSLPVVVISNVSQLPSGWASILWYNMLVAEPRNLSFFLTPPCARWAQLSEVLSWQFSSVTKRGLNVDQLNMLGEKLLGPNASPDGLIPWTRFCKENINDKNFPFWLWIESILELIKKHLLPLWNDGCIMGFISKERERALLKDQQPGTFLLRFSESSREGAITFTWVERSQNGGEPDFHAVEPYTKKELSAVTFPDIIRNYKVAACECIPENPLKYLYPNIDKDHAFGKYYSRPKEAPEPMELDGPKGTGYIKTELISVSEVH

Biological target: T1, 6XHis-tagged TgIST-R2 (G365-S420)
T1 chain: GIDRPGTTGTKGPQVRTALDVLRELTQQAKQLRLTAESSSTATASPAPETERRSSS
Assay: nickel affinity copurification, SDS-PAGE, Coomassie blue band quantification
Settings: chain shown with the change;; parent: est. 1.0; read off a plot

Going from B1 to B2, the ratio to parent rises from 0.82 to 1.1.

Compared with B3, B4 is lower in ratio to parent: 0.87 for the first, 0.26 for the second.

Compared with B5, B6 is lower in ratio to parent: 0.93 for the first, 0.9 for the second.

Binder B7 has a ratio to parent of 0.04.
